± gives the standard error. For some of these results: Variants at the floor of the assay were thinned out.
B1: glmS ribozyme (parent)
chain: AUAAAAGCGCCAGAACUACAGAAAUGUAGUUGACGAGGAGGAGGUUUAUCGAAUUUUCGGCGGAUGCCUCCAAA

Tests used:
Conditions in all cases: with glucosamine-6-phosphate
glucosamine-6-phosphate [1] = variants of: B1; test: kcat; higher = faster cleavage; RNA array
How it was run: (§1)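 The measurements used barcoded ribozyme variants on sequenced MiSeq chips, transcribed in situ by E. coli RNA polymerase and tracked at 37 °C with a hybridised Cy3 probe. Glucosamine-6-phosphate, 40 μM to 10 mM in HEPES/KCl/Mg(OAc)2 buffer, was flowed in while tiles were imaged over ~14 h. Baseline-normalised signals, also normalised to non-cleaving reference variants, gave per-tile medians that were fit to one- or two-exponential decays for kobs. kcat and KM resulted from weighted Michaelis–Menten fits across concentrations.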

glucosamine-6-phosphate [2] = variants of: B1; test: KM; higher = weaker cofactor use; RNA array
How it was run: as §1

glucosamine-6-phosphate [3] = variants of: B1; test: self-cleavage kobs at 160 uM GlcN6P; higher = faster cleavage; RNA array
How it was run: as §1

glucosamine-6-phosphate [4] = variants of: B1; test: self-cleavage kobs at 640 uM GlcN6P; higher = faster cleavage; RNA array
How it was run: as §1

glucosamine-6-phosphate [5] = variants of: B1; test: self-cleavage kobs at 2500 uM GlcN6P; higher = faster cleavage; RNA array
How it was run: as §1

glucosamine-6-phosphate [6] = variants of: B1; test: self-cleavage kobs at 10000 uM GlcN6P; higher = faster cleavage; RNA array
How it was run: as §1

glucosamine-6-phosphate [7] = variants of: B1; test: self-cleavage kobs at 40 uM GlcN6P; higher = faster cleavage; RNA array
How it was run: as §1

Row | Variant | kcat (glucosamine-6-phosphate [1]) [s⁻¹] | KM (glucosamine-6-phosphate [2]) [µM] | self-cleavage kobs at 160 uM GlcN6P (glucosamine-6-phosphate [3]) [s⁻¹] | self-cleavage kobs at 640 uM GlcN6P (glucosamine-6-phosphate [4]) [s⁻¹] | self-cleavage kobs at 2500 uM GlcN6P (glucosamine-6-phosphate [5]) [s⁻¹] | self-cleavage kobs at 10000 uM GlcN6P (glucosamine-6-phosphate [6]) [s⁻¹] | self-cleavage kobs at 40 uM GlcN6P (glucosamine-6-phosphate [7]) [s⁻¹]
1 | A12C A15U C16U C70U | 0.000185 ± 1.8e-05 | 514 ± 130 | 5.1e-05 ± 1.8e-05 | 9.57e-05 ± 2.2e-05 | 0.000148 ± 5e-05 | 0.000188 ± 4.7e-05 | 
2 | G37A U47G | 0.000419 ± 0.0001 | 1250 ± 600 | 9.69e-05 ± 1.9e-05 | 0.000127 ± 1.6e-05 | 0.000274 ± 4.4e-05 | 0.000396 ± 5.4e-05 | 
3 | G37A U47C | 0.000634 ± 0.00022 |  | 8.31e-05 ± 2.2e-05 | 0.000181 ± 3.8e-05 | 0.000398 ± 7.7e-05 | 0.00103 ± 0.00045 | 
4 | A15G G29C | 0.00276 ± 0.00064 | 3540 ± 1400 | 0.000187 ± 5.3e-05 | 0.000327 ± 7.2e-05 | 0.00156 ± 0.00032 | 0.002 ± 0.00023 | 3.64e-05 ± 1.1e-05
5 | A12C U47A G60A | < 1e-05 |  |  |  |  |  | 
6 | G59U U69G | 2.94e-05 ± 8.4e-06 |  |  |  |  |  | 
7 | C11U A52G | 0.000164 ± 8e-06 | 1690 ± 270 |  | 4.15e-05 ± 1e-05 | 0.000109 ± 1.8e-05 | 0.000139 ± 1.1e-05 | 
8 | C58U U69C | 2.82e-05 ± 7e-06 |  |  |  | 5.56e-05 ± 1.6e-05 | 2.52e-05 ± 5.6e-06 | 
9 | G41C U49G | < 1e-05 |  | < 1e-05 |  |  |  | 
10 | G29A A53C | 0.000592 ± 0.0002 |  | 9.67e-05 ± 2.5e-05 | 0.000185 ± 5.1e-05 | 0.00047 ± 0.00011 |  | 
11 | A6U G13C C70G | 2.43e-05 ± 8.6e-06 |  |  |  |  |  | 
12 | A14U G62A C70G | 5.52e-05 ± 1.4e-05 |  |  | 5.47e-05 ± 2e-05 |  |  | 
13 | A48U C70A | 1.64e-05 ± 7.1e-06 |  |  |  | 3.28e-05 ± 1.6e-05 |  | 
14 | C11A A15G C16A G29U | 0.000222 ± 4.3e-05 | 2210 ± 1100 |  | 6.91e-05 ± 2.4e-05 | 0.000102 ± 2.4e-05 | 0.000192 ± 3.5e-05 | 
15 | G35A C50G | 0.000781 ± 0.00018 | 1190 ± 540 |  | 0.000273 ± 0.00012 | 0.000615 ± 0.00015 |  | 
16 | A12C C16U | 0.0121 ± 0.005 |  | 0.001 ± 0.00018 | 0.00435 ± 0.00065 | 0.0065 ± 0.0011 | 0.016 ± 0.0022 | 0.000543 ± 4.7e-05
17 | G29C A52G | 0.000125 ± 7.9e-06 | 1940 ± 350 |  | 2.88e-05 ± 7.9e-06 | 7.18e-05 ± 1e-05 | 0.000104 ± 1e-05 | 
18 | A6G U56G U69G | 1.41e-05 ± 3e-06 |  |  |  |  |  | 
19 | A12G G29C | 0.000167 ± 5.4e-05 |  |  | 3.94e-05 ± 1.1e-05 | 4.98e-05 ± 1.3e-05 | 0.000123 ± 1.4e-05 | 
20 | A42U U55G | 0.000182 ± 1.6e-05 | 577 ± 150 | 5.02e-05 ± 1.6e-05 | 8.8e-05 ± 1.4e-05 | 0.000164 ± 2.3e-05 | 0.000167 ± 2.3e-05 | 

From the supplement of paper PMC7125110
